Here are results for 17 molecules from patent publication US20210380703A1 (RIGEL PHARMACEUTICALS, published 2021).

The target in experiment [1] is T1, biotinylated goat anti-human kappa light chain.
T1 construct: positive control of the ELISA
As to the kind of experiment: ELISA, positive control. In short, it runs like this: (§1)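 ELISA measured binding of ACVR2A-specific monoclonal antibodies to human and mouse ACVR2A. Biotinylated goat anti-human kappa light chain served as positive control and human Fc as negative control.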
A general note: ELISA stands for enzyme-linked immunosorbent assay.

The next experiment concerns the target T2, human ACVR2A (human, UniProt P27037 20-135, limits assumed).
T2 construct: also called activin receptor, type II A
As to the kind of experiment: ELISA. In short, it runs like this:
as §1

The target of the next experiment is mouse ACVR2A (mouse, UniProt P27038 20-135, limits assumed). As to the kind of experiment: ELISA. In short, it runs like this: as §1
Note: test concentration or dose not given here.

mouse ACVR2A, sequence (P27038 20-135 limits assumed): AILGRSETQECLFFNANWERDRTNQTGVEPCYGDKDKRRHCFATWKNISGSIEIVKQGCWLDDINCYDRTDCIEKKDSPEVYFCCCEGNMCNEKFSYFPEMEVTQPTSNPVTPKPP
T2 sequence (P27037 20-135 limits assumed): as the sequence (P27038 20-135 limits assumed) above, with R20K, I73V counted along it

B1: 366_D01 (antibody, V domains shown)
VH: EVQLLESGGGLVQPGGSLRLSCAASGFTFSSYGMHWVRQAPGKGLEWVSSINYNGGYTGYADSVKGRFTISRDNSKNTLYLQMNSLRAEDTAVYYCARAANWHDTHLDYWGQGTLVTVSS
VL: DIQMTQSPSSLSASVGDRVTITCRASQSILTYVNWYQQKPGKAPKLLIYAATSRASGVPSRFSGSGSGTDFTLTISSLQPEDFATYYCQQSYENPLTFGGGTKVEIK
notes: Group I
B1: the optical density in experiment [1] was 3.48 OD; with human ACVR2A, 2.36 OD; with mouse ACVR2A it was 2.46 OD.

B2: 366_D03 (antibody, V domains shown)
VH: EVQLLESGGGLVQPGGSLRLSCAASGFTFDSYGMHWVRQAPGKGLEWVSSINYNGGYTGYADSVKGRFTISRDNSKNTLYLQMNSLRAEDTAVYYCARAANWHDTHLDYWGQGTLVTVSS
VL: DIQMTQSPSSLSASVGDRVTITCRASQSILSYVNWYQQKPGKAPKLLIYAATSRASGVPSRFSGSGSGTDFTLTISSLQPEDFATYYCQQSYDLPLTFGGGTKVEIK
notes: Group I
Take B2: the optical density in experiment [1] is 3.48 OD; in the experiment with human ACVR2A it was 2.23 OD; with mouse ACVR2A, 2.38 OD.

B3: 366_E01 (antibody, V domains shown)
VH: EVQLLESGGGLVQPGGSLRLSCAASGFTFDSYGMNWVRQAPGKGLEWVSNINYNGGYKSYADSVKGRFTISRDNSKNTLYLQMNSLRAEDTAVYYCARGANWHDTHLDYWGQGTLVTVSS
VL: DIQMTQSPSSLSASVGDRVTITCRASQSILTYLNWYQQKPGKAPKLLIYAATSRASGVPSRFSGSGSGTDFTLTISSLQPEDFATYYCQQSYSSPLTFGGGTKVEIK
notes: Group III
Take B3: the optical density turned out to be 3.66 OD in experiment [1], 2.69 OD with human ACVR2A and 2.72 OD in the experiment with mouse ACVR2A.

B4: 366_H04 (antibody, V domains shown)
VH: EVQLLESGGGLVQPGGSLRLSCAASGFTFDSYGMNWVRQAPGKGLEWVSNINYNGGYKSYADSVKGRFTISRDNSKNTLYLQMNSLRAEDTAVYYCARGANWHDTHLDYWGQGTLVTVSS
VL: DIQMTQSPSSLSASVGDRVTITCRASQSILTYLNWYQQKPGKAPKLLIYAATSRASGVPSRFSGSGSGTDFTLTISSLQPEDFATYYCQQSYSSPLTFGGGTKVEIK
notes: Group III
In the case of B4, the optical density in experiment [1] stood at 3.52 OD; with human ACVR2A, 2.69 OD; in the experiment with mouse ACVR2A, 2.83 OD.

B5: 366_G12 (antibody, V domains shown)
VH: EVQLLESGGGLVQPGGSLRLSCAASGFTFSSYGMHWVRQAPGKGLEWVSGINYNSGYKGYADSVKGRFTISRDNSKNTLYLQMNSLRAEDTAVYYCARGANWHDTHLDYWGQGTLVTVSS
VL: DIQMTQSPSSLSASVGDRVTITCRASQSILSYLNWYQQKPGKAPKLLIYAATSRHSGVPSRFSGSGSGTDFTLTISSLQPEDFATYYCQQSYNTPLTFGGGTKVEIK
notes: Group III
For B5, the optical density in experiment [1] worked out at 3.59 OD; with human ACVR2A it was 2.71 OD; with mouse ACVR2A, 2.83 OD.

B6: 366_F02 (antibody, V domains shown)
VH: EVQLLESGGGLVQPGGSLRLSCAASGFTFSSYGMNWVRQAPGKGLEWVSGINYNSGYTGYADSVKGRFTISRDNSKNTLYLQMNSLRAEDTAVYYCARGANWHDTHLDYWGQGTLVTVSS
VL: DIQMTQSPSSLSASVGDRVTITCRASQSILTYLNWYQQKPGKAPKLVIYAATSRHSGVPSRFSGSGSGTDFTLTISSLQPEDFATYYCQQSYDNPLTFGGGTKVEIK
notes: Group III
Regarding B6, the optical density turned out to be 3.6 OD in experiment [1], 2.15 OD with human ACVR2A and 2.11 OD with mouse ACVR2A.

B7: 366_F10 (antibody, V domains shown)
VH: EVQLLESGGGLVQPGGSLRLSCAASGFTFDSYSMNWVRQAPGKGLEWVAGINYNGGYTGYADSVKGRFTISRDNSKNTLYLQMNSLRAEDTAVYYCARAANWHDTHLDYWGQGTLVTVSS
VL: DIQMTQSPSSLSASVGDRVTITCRASQSIVSYLNWYQQKPGKAPKLVIYAATSRASGVPSRFSGSGSGTDFTLTISSLQPEDFATYYCQQSYDTPLTFGGGTKVEIK
notes: Group I
As for B7, the results for the optical density (in experiment [1]; in the experiment with human ACVR2A; with mouse ACVR2A) were 3.52 OD, 2.05 OD and 2.21 OD, respectively.

B8: 366_G06 (antibody, V domains shown)
VH: EVQLLESGGGLVQPGGSLRLSCAASGFTFSSYGMHWVRQAPGKGLEWVASINYNGGYTGYADSVKGRFTISRDNSKNTLYLQMNSLRAEDTAVYYCARAANWHDTHLDYWGQGTLVTVSS
VL: DIQMTQSPSSLSASVGDRVTITCRASQSIVSYVNWYQQKPGKAPKLVIYAATSRASGVPSRFSGSGSGTDFTLTISSLQPEDFATYYCQQSYDNPLTFGGGTKVEIK
notes: Group I
B8: the figures for the optical density (in experiment [1]; with human ACVR2A; with mouse ACVR2A) were 3.41 OD, 2.68 OD and 2.82 OD, respectively.

B9: 366_E08 (antibody, V domains shown)
VH: EVQLLESGGGLVQPGGSLRLSCAASGFTFSDYSMNWVRQAPGKGLEWVSNINYNGGYTSYADSVKGRFTISRDNSKNTLYLQMNSLRAEDTAVYYCARGANWHDTHLDYWGQGTLVTVSS
VL: DIQMTQSPSSLSASVGDRVTITCRASQSIVTYLNWYQQKPGKAPKLLIYAATSRHSGVPSRFSGSGSGTDFTLTISSLQPEDFATYYCQQSYSNPLTFGGGTKVEIK
notes: Group III
Consider B9, for which the optical density in experiment [1] amounted to 3.35 OD; with human ACVR2A it was 1.97 OD; in the experiment with mouse ACVR2A it was 2 OD.

B10: 367_B09 (antibody, V domains shown)
VH: EVQLLESGGGLVQPGGSLRLSCAASGFTFDSYGMHWVRQAPGKGLEWVASINYNGGYTSYADSVKGRFTISRDNSKNTLYLQMNSLRAEDTAVYYCARAANWHDTALDYWGQGTLVTVSS
VL: DIQMTQSPSSLSASVGDRVTITCRASQSILSYVNWYQQKPGKAPKLVIYAATSRASGVPSRFSGSGSGTDFTLTISSLQPEDFATYYCQQSYENPLTFGGGTKVEIK
notes: Group I
Regarding B10, the values for the optical density (in experiment [1]; with human ACVR2A; with mouse ACVR2A) were 3.37 OD, 2.42 OD and 2.43 OD, respectively.

B11: 367_A06 (antibody, V domains shown)
VH: EVQLLESGGGLVQPGGSLRLSCAASGFTFDSYGMNWVRQAPGKGLEWVASINYNGGYKGYADSVKGRFTISRDNSKNTLYLQMNSLRAEDTAVYYCARGANWHDTHLDYWGQGTLVTVSS
VL: DIQMTQSPSSLSASVGDRVTITCRASQSILSYVNWYQQKPGKAPKLLIYAATSRHSGVPSRFSGSGSGTDFTLTISSLQPEDFATYYCQQSYDTPLTFGGGTKVEIK
notes: Group III
B11: the optical density in experiment [1] was found to be 3.36 OD; with human ACVR2A, 2.34 OD; with mouse ACVR2A, 2.57 OD.

B12: 367_A03 (antibody, V domains shown)
VH: EVQLLESGGGLVQPGGSLRLSCAASGFTFDSYGMNWVRQAPGKGLEWVAGINYNGGYTSYADSVKGRFTISRDNSKNTLYLQMNSLRAEDTAVYYCARGANWHDTALDYWGQGTLVTVSS
VL: DIQMTQSPSSLSASVGDRVTITCRASQSILTYVNWYQQKPGKAPKLLIYATTSRHSGVPSRFSGSGSGTDFTLTISSLQPEDFATYYCQQSYDSPLTFGGGTKVEIK
notes: Group III
Consider B12, for which the optical density in experiment [1] amounted to 3.44 OD; in the experiment with human ACVR2A, 2.58 OD; with mouse ACVR2A it was 2.45 OD.

B13: 367_A08 (antibody, V domains shown)
VH: EVQLLESGGGLVQPGGSLRLSCAASGFTFDSYGMNWVRQAPGKGLEWVAGINYNGGYTSYADSVKGRFTISRDNSKNTLYLQMNSLRAEDTAVYYCARGANWHDTHLDYWGQGTLVTVSS
VL: DIQMTQSPSSLSASVGDRVTITCRASQSILTYLNWYQQKPGKAPKLLIYAVTSRASGVPSRFSGSGSGTDFTLTISSLQPEDFATYYCQQSYDSPLTFGGGTKVEIK
notes: Group III
Regarding B13, the optical density in experiment [1] was found to be 3.34 OD; in the experiment with human ACVR2A it was 2.06 OD; with mouse ACVR2A, 2.09 OD.

B14: 366_H01 (antibody, V domains shown)
VH: EVQLLESGGGLVQPGGSLRLSCAASGFTFDDYSMHWVRQAPGKGLEWVANINYNGGYTSYADSVKGRFTISRDNSKNTLYLQMNSLRAEDTAVYYCARAATWHDTHLDYWGQGTLVTVSS
VL: DIQMTQSPSSLSASVGDRVTITCRASQSILTYLNWYQQKPGKAPKLVIYATTSRHSGVPSRFSGSGSGTDFTLTISSLQPEDFATYYCQQSYESPLTFGGGTKVEIK
notes: Group II
Consider B14, for which the optical density in experiment [1] was 3.71 OD; with human ACVR2A, 2.79 OD; in the experiment with mouse ACVR2A, 2.77 OD.

B15: 366_G02 (antibody, V domains shown)
VH: EVQLLESGGGLVQPGGSLRLSCAASGFTFDSYGMHWVRQAPGKGLEWVSSINYNGGYTSYADSVKGRFTISRDNSKNTLYLQMNSLRAEDTAVYYCARAATWHDTHLDYWGQGTLVTVSS
VL: DIQMTQSPSSLSASVGDRVTITCRASQSILTYLNWYQQKPGKAPKLLIYAATSRHSGVPSRFSGSGSGTDFTLTISSLQPEDFATYYCQQSDDNPLTFGGGTKVEIK
notes: Group II
Regarding B15, the optical density in experiment [1] turned out to be 3.56 OD; with human ACVR2A it was 2.16 OD; with mouse ACVR2A it was 2.32 OD.

B16: 366_E07 (antibody, V domains shown)
VH: EVQLLESGGGLVQPGGSLRLSCAASGFTFDSYGMHWVRQAPGKGLEWVAGINYNGGYTSYADSVKGRFTISRDNSKNTLYLQMNSLRAEDTAVYYCARAATWHDTALDYWGQGTLVTVSS
VL: DIQMTQSPSSLSASVGDRVTITCRASQSILTYLNWYQQKPGKAPKLVIYAATSRHSGVPSRFSGSGSGTDFTLTISSLQPEDFATYYCQQSDNSPLTFGGGTKVEIK
notes: Group II
Regarding B16, the figures for the optical density (in experiment [1]; in the experiment with human ACVR2A; in the experiment with mouse ACVR2A) were 3.14 OD, 1.68 OD and 1.86 OD, respectively.

B17: 367_B11 (antibody, V domains shown)
VH: EVQLLESGGGLVQPGGSLRLSCAASGFTFSDYSMHWVRQAPGKGLEWVANINYNSGYTSYADSVKGRFTISRDNSKNTLYLQMNSLRAEDTAVYYCARAANWHDTALDYWGQGTLVTVSS
VL: DIQMTQSPSSLSASVGDRVTITCRASQSILSYLNWYQQKPGKAPKLVIYAATSRASGVPSRFSGSGSGTDFTLTISSLQPEDFATYYCQQSYSTPLTFGGGTKVEIK
notes: Group I
For the molecule B17, the values for the optical density (in experiment [1]; in the experiment with human ACVR2A; in the experiment with mouse ACVR2A) were 3.6 OD, 2.34 OD and 2.46 OD, respectively.
